Target: MdAP2-34 (Malus domestica, UniProt A0A678SKA5 1-366)
Assay: EMSA; LightShift Chemiluminescent EMSA Kit (Thermo Fisher); buffer, salt, pH and temperature not stated
Settings: protein: recombinant; tags: GST (pGEX-4T-1, N-terminal); label: 5' biotin; blunt

Sequence of MdAP2-34 (A0A678SKA5 entry or part of it): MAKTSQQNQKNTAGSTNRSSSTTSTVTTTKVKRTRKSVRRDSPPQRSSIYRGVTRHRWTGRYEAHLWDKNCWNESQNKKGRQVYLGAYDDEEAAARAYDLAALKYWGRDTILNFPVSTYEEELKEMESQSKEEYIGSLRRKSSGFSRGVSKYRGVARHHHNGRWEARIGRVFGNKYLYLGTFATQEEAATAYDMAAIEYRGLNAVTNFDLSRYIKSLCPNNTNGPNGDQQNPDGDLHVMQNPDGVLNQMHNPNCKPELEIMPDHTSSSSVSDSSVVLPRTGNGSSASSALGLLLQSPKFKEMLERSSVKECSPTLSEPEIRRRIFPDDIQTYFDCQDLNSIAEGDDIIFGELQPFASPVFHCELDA

B1: MdPSY2-1 promoter hot probe (dsDNA)
DNA 1: CTTTTCTTCTCTCAGTACATGCACCGACGTCGATATTAACCTTGGAACCT
DNA 2: AGGTTCCAAGGTTAATATCGACGTCGGTGCATGTACTGAGAGAAGAAAAG
binding result: binds

Source: PMC8492665, “An apple (Malus domestica) AP2/ERF transcription factor modulates carotenoid accumulation”
